Experimental findings from US8859723 (dated 2014) are described below.

Read-outs that look alike come from different tables or passages of the source.

The target in test [1] is T1, hDMX (In-house, 40 kD) (human, UniProt O15151 1-120).
T1 chain: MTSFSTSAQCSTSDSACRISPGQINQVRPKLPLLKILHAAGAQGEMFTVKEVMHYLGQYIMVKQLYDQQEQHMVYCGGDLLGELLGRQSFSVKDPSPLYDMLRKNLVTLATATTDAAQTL
Put plainly: FP competition.

In test [2] the target is T2, hDM2 (In-house, 41 kD) (human, UniProt Q00987 1-125). As to the kind of experiment: FP competition.
Test [3] has as its target T2, hDM2 (In-house, 41 kD). As to the kind of experiment: FP competition. The source holds these as a separate data set.
Test [4] has as its target T1, hDMX (In-house, 40 kD). Put plainly: FP competition.
Test [5] has as its target SP-44. Put plainly: Affinity selection MS.
In test [6] the target is SP-5. As to the kind of experiment: Affinity selection MS.

B1: SP-586 (peptide)
chain: LTFAAYWAQFAS
modifications: not fully specified
In general, IC50 refers to the concentration that inhibits the measured activity by half. A lower IC50 goes with higher potency. In the case of B1, the IC50 in test [1] was found to be 673 nM.

B2: SP-681 (peptide)
chain: LTFAAYWVQLAS
modifications: not fully specified
Take B2: the IC50 in test [2] worked out at 118 nM; in test [1] it was 395 nM.

B3: SP-508 (peptide)
chain: ETFAAYWAQLAS
modifications: not fully specified
For B3, the figures for the IC50 in test [3] and in test [4] were 22.8 nM and 88.8 nM, respectively.

B4: SP-684 (peptide)
chain: ITFAFYWAQLAS
modifications: not fully specified
B4: the IC50 in test [2] was 104 nM.

B5: SP-604 (peptide)
chain: LTFAFYWAQLAA
modifications: not fully specified
The molecule B5 registered an IC50 in test [1] of 310 nM.

B6: SP-671 (peptide)
chain: LTFAEYWAQLAA
modifications: not fully specified
Consider B6, for which, in test [2], the IC50 came out at 63.6 nM. That is a double-digit nanomolar value.

B7: SP-709 (peptide)
chain: ETFAAYWAQLAA
modifications: not fully specified
B7: the IC50 in test [2] was 103 nM.

B8: SP-673 (peptide)
chain: LTFAAYWAALAS
modifications: not fully specified
B8 displayed an IC50 in test [2] of 137 nM.

B9: GST-hDM2 (other)
chain: MCNTNMSVPTDGAVTTSQIPASEQETLVRPKPLLLKLLKSVGAQKDTYTMKEVLFYLGQYIMTKRLYDEKQQHIVYCSNDLLGDLFGVPSFSVKEHRKIYTMIYRNLVVVNQQESSDSGTSVSEN
The Kd is the free concentration of one partner at which half of the binding sites on the other are occupied at equilibrium, for simple one-to-one binding. With B9, the Kd in test [5] and in test [6] was 25 nM throughout.

B10: SP-698 (peptide)
chain: LTFAAYWSQLAA
modifications: not fully specified
For the molecule B10, the IC50 in test [2] turned out to be 82.2 nM; in test [1], 157 nM.

B11: GST-hDMX (other)
chain: MTSFSTSAQCSTSDSACRISPGQINQVRPKLPLLKILHAAGAQGEMFTVKEVMHYLGQYIMVKQLYDQQEQHMVYCGGDLLGELLGRQSFSVKDPSPLYDMLRKNLVTLATATTDAAQTL
On to B11, for which the Kd in test [5] was determined as 180 nM; in test [6] it was 90 nM.

B12: SP-696 (peptide)
chain: WTFALYWSQLAS
modifications: not fully specified
Regarding B12, in test [1], the half-inhibitory concentration (IC50) worked out at 379 nM.

B13: SP-623 (peptide)
chain: LTFAVYWAQLAA
modifications: not fully specified
The molecule B13 came in with an IC50 in test [2] of 68.3 nM. That is a double-digit nanomolar value.
